Earlier results on two substances are cited in article PMC3417102.

The target in data set [1] is Glu-plasminogen (Homo sapiens) (UniProt P00747).
For data set [2], the target named is tissue-type plasminogen activator (Homo sapiens) (UniProt P00750).
For data set [3], the target named is plasminogen (Homo sapiens) (UniProt P00747).

Chain of UniProt P00750 (P00750 311-562): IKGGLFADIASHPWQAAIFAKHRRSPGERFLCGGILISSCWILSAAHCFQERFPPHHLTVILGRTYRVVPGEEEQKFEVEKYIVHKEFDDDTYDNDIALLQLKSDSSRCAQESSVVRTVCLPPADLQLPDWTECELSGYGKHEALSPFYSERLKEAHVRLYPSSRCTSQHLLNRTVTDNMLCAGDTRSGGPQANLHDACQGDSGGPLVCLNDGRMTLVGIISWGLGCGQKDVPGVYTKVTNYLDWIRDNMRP

As to “beta2-glycoprotein I (nicked) (from UniProt P02749)”, the Kd in data set [1] is 370 nM.

Regarding Annexin A2 (from UniProt P07355), the dissociation constant (Kd) in data set [2] is 30 nM; in data set [3], 114 nM.
